Laboratory results reported in patent publication US20250353917A1 (SYSTIMMUNE, published 2025).
Substitutions are numbered along the chain they refer to.

B1: SI-79SF3 (Fc fusion)
chain: EIVMTQSPSTLSASVGDRVIITCRASQSIGTNIHWYQQKPGKAPKLLIYYASESISGIPSRFSGSGSGAEFTLTISSLQPDDFATYYCQQNNNWPTTFGQGTKLTVLGGGGSGGGGSGGGGSGGGGSEVQLVESGGGLVQPGGSLRLSCKVSGFSLTNYGVHWVRQAPGKGLEWVGVIWSGGNTDYNTPFTSRFTISRDTSKNTVYLQMNSLRAEDTAVYYCARALTYYDYEFAYWGQGTLVTVSSGSGGSPVAGPSVFLFPPKPKDTLMISRTPEVTCVVVDVSHEDPEVKFNWYVDGVEVHNAKTKPREEQYASTYRVVSVLTVLHQDWLNGKEYKCKVSNKALPAPIEKTISKAKGQPREPQVYTLPPSRDELTKNQVSLRCHVKGFYPSDIAVEWESNGQPENNYKTTKPVLDSDGSFFLYSTLTVDKSRWQQGNVFSCSVLHEALHNHYTQKSLSLSPGK
notes: also called H1; H1 scFv-monoFc
B2: SI-79SF8 (Fc fusion)
chain: DIVLTQSPATLSVSPGERATLSCRASQSIGTNIHWYQQKPGQAPRLLIKYASESISGIPSRFSGSGSGTDFTLTISSVQSEDFAVYYCQQNNNWPTTFGQGTKLEIKGGGGSGGGGSGGGGSGGGGSQVQLQESGPGLVKPSESLSLTCTVSGFSLTNYGVHWVRQPPGKGLEWIGVIWSGGNTDYNTPFTSRVTISKDNSKNQVSLKMNSLTAADTAVYYCARALTYYDYEFAYWGQGTLVTVSSGSGGSPVAGPSVFLFPPKPKDTLMISRTPEVTCVVVDVSHEDPEVKFNWYVDGVEVHNAKTKPREEQYASTYRVVSVLTVLHQDWLNGKEYKCKVSNKALPAPIEKTISKAKGQPREPQVYTLPPSRDELTKNQVSLRCHVKGFYPSDIAVEWESNGQPENNYKTTKPVLDSDGSFFLYSTLTVDKSRWQQGNVFSCSVLHEALHNHYTQKSLSLSPGK
notes: also called H10; H10 scFv-monoFc
B3: SI-79SF13 (Fc fusion)
chain: B2 chain with E105T, I106V, K107L
notes: also called H11; H11 scFv-monoFc
B4: SI-79SF4 (Fc fusion)
chain: EIVLTQSPSTLSVSPGERATFSCRASQSIGTNIHWYQQKPGKPPRLLIKYASESISGIPDRFSGSGSGTEFTLTISSVQSEDFAVYYCQQNNNWPTTFGPGTKLELKGGGGSGGGGSGGGGSGGGGSQVQLQQSGPGLVKPSETLSITCTVSGFSLTNYGVHWIRQAPGKGLEWLGVIWSGGNTDYNTPFTSRFTITKDNSKNQVYFKLRSVRADDTAIYYCARALTYYDYEFAYWGQGTLVTVSSGSGGSPVAGPSVFLFPPKPKDTLMISRTPEVTCVVVDVSHEDPEVKFNWYVDGVEVHNAKTKPREEQYASTYRVVSVLTVLHQDWLNGKEYKCKVSNKALPAPIEKTISKAKGQPREPQVYTLPPSRDELTKNQVSLRCHVKGFYPSDIAVEWESNGQPENNYKTTKPVLDSDGSFFLYSTLTVDKSRWQQGNVFSCSVLHEALHNHYTQKSLSLSPGK
notes: also called H4; H4 scFv-monoFc
B5: SI-79SF6 (Fc fusion)
chain: B4 chain with E105T, L106V, K107L
notes: also called H7; H7 scFv-monoFc
B6: SI-79SF10 (Fc fusion)
chain: EIVLTQSPSILSVSPGERVTFSCRASQSIGTNIHWYQQRPGKPPRLLIKYASESISGIPARFSGSGSGTEFTLTISSVQSEDFATYYCQQNNNWPTTFGPGTKLELKGGGGSGGGGSGGGGSGGGGSQVQLVQSGPGLVKPSQTLSLTCTVSGFSLTNYGVHWIRQAPGKGLEWLGVIWSGGNTDYNTPFTSRFTITKDNSKNQVYFKLRSVRSEDTAVYYCARALTYYDYEFAYWGQGTLVTVSSGSGGSPVAGPSVFLFPPKPKDTLMISRTPEVTCVVVDVSHEDPEVKFNWYVDGVEVHNAKTKPREEQYASTYRVVSVLTVLHQDWLNGKEYKCKVSNKALPAPIEKTISKAKGQPREPQVYTLPPSRDELTKNQVSLRCHVKGFYPSDIAVEWESNGQPENNYKTTKPVLDSDGSFFLYSTLTVDKSRWQQGNVFSCSVLHEALHNHYTQKSLSLSPGK
notes: also called H3; H3 scFv-monoFc
B7: SI-79SF12 (Fc fusion)
chain: B4 chain with T10I, K39R, D60S, S76T, F83I, E143Q, T197S, V212L, D215E
notes: also called H2; H2 scFv-monoFc
B8: SI-79SF11 (Fc fusion)
chain: EIQLTQSPSTLSVSPGERATFSCRASQSIGTNIHWYQQKTGQPPRLLIKYASESISGIPDRFSGSGSGTEFTLSITSVQSEDFAVYYCQQNNNWPTTFGPGTKLEILGGGGSGGGGSGGGGSGGGGSQVQLLQSGPGLVKPSETLSLTCTVSGFSLTNYGVHWIRQAPGKGLEWIGVIWSGGNTDYNTPFTSRFTISKDNSKNQVYFKLRSLTSEDTAIYYCARALTYYDYEFAYWGQGTLVTVSSGSGGSPVAGPSVFLFPPKPKDTLMISRTPEVTCVVVDVSHEDPEVKFNWYVDGVEVHNAKTKPREEQYASTYRVVSVLTVLHQDWLNGKEYKCKVSNKALPAPIEKTISKAKGQPREPQVYTLPPSRDELTKNQVSLRCHVKGFYPSDIAVEWESNGQPENNYKTTKPVLDSDGSFFLYSTLTVDKSRWQQGNVFSCSVLHEALHNHYTQKSLSLSPGK
notes: also called H5; H5 scFv-monoFc
B9: SI-79SF9 (Fc fusion)
chain: EIVLTQSPSTLSVSPGERVSFSCRASQSIGTNIHWYQQRTGQPPRLLIKYASESISGIPARFSGSGSGTEFTLTITSVQSEDFAVYYCQQNNNWPTTFGQGTKLDIKGGGGSGGGGSGGGGSGGGGSQVQLLQSGPGLVKPSETLSITCTVSGFSLTNYGVHWIRQAPGKGLEWIGVIWSGGNTDYNTPFTSRFTITKDNSKNQVFFKLRSVRAEDTALYYCARALTYYDYEFAYWGQGTLVTVSSGSGGSPVAGPSVFLFPPKPKDTLMISRTPEVTCVVVDVSHEDPEVKFNWYVDGVEVHNAKTKPREEQYASTYRVVSVLTVLHQDWLNGKEYKCKVSNKALPAPIEKTISKAKGQPREPQVYTLPPSRDELTKNQVSLRCHVKGFYPSDIAVEWESNGQPENNYKTTKPVLDSDGSFFLYSTLTVDKSRWQQGNVFSCSVLHEALHNHYTQKSLSLSPGK
notes: also called H6; H6 scFv-monoFc

Target: T1, soluble recombinant extracellular domain of human EGFR (human, UniProt P00533 25-645)
T1 construct: extracellular domain
Experiment: BLI of scFv-monoFc proteins, against wild-type cetuximab scFv-monoFc
Method: (§1) Fc-containing protein was captured to anti-human Fc (AHC) sensor tips by loading for 180 seconds at 10 μg/ml. Alternatively, His-tagged proteins were covalently coupled at 10 ug/ml to AR2G tips using manufacturer protocol. After a 60-second baseline step, a 180- to 300-second association phase with serial dilutions (0-200 nM; 1:2.5 dilution factor) or a single 100 nM concentration of purified human EGFR in assay buffer (phosphate-buffered saline containing 0.1% BSA, 0.05% Tween20) was performed, followed by a 300- to 600—second dissociation phase in assay buffer. Regeneration was achieved using 10 mM glycine, pH 1.5. Binding curves were globally fit to a 1:1 model to extract the dissociation constants, KD. Binding kinetics for each protein were assessed in duplicate, with tabulated values reported as average±standard deviation.
(§2) The monoFc domain was used to load proteins onto anti-human Fc (AHC) sensors, followed by binding of scFv to serial dilutions of the extracellular domain of human EGFR.

Row | Binder | fold decrease in binding affinity [fold]
1 | B1 | 4
2 | B2 | 2
3 | B3 | 2

Target: T1, soluble recombinant extracellular …
Experiment: BLI (Octet), scFv-monoFc on AHC sensors, serial dilutions of EGFR extracellular domain;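 also: EGFR analyte titrated 0 to 200 nM, association 180–300 s then dissociation 300–600 s in PBS with 0.1% BSA and 0.05% Tween20, global 1:1 fit, duplicate means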
Method: as §1, §2

Row | Binder | Kd [nM] | koff [s⁻¹] | kon [M⁻¹ s⁻¹]
4 | B1 | 13.1 | 0.00927 | 718000
5 | B2 | 6.77 | 0.00458 | 665000
6 | B3 | 6.74 | 0.00454 | 661000
7 | B4 | 3.05 | 0.00139 | 450000
8 | B5 | 3.14 | 0.00143 | 447000
9 | B6 | 3.45 | 0.00177 | 504000
10 | B7 | 3.08 | 0.00151 | 481000
11 | B8 | 2.27 | 0.0011 | 474000
12 | B9 | 3.42 | 0.00165 | 476000
